Reference: paper PMC12001115, “Double prenylation of budding yeast Ykt6 regulates cell wall integrity and autophagy” (The Journal of Biological Chemistry, 2025)

Target: T1, Ecm9 (recombinant, subunit of yeast GGT3) (budding yeast (S. cerevisiae), UniProt Q02202 1-377)
T1 construct: Ecm9, budding yeast; no tag is named for this chain; also called recombinant yeast GGT3 α subunit
T1 sequence (looked up): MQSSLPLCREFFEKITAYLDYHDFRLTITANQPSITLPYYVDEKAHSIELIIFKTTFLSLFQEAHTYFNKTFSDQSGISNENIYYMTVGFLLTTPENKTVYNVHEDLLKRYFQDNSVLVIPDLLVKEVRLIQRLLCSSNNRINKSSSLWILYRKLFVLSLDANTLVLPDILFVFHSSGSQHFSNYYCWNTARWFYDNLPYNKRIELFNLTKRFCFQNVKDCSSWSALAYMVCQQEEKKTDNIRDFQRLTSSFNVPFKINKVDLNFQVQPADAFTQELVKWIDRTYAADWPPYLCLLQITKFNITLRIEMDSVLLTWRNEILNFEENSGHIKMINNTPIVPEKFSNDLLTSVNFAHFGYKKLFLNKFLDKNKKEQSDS
Assay: SEC; Ecm9 and GST-Bet2 co-expressed in ExpiSf cells and co-purified (glutathione Sepharose, GST cleaved, MonoQ), then Superdex 200 Increase gel filtration in buffer A (50 mM HEPES-KOH pH 7.4, 50 mM NaCl, 5 mM MgCl2, 1 mM DTT); SDS-PAGE with Coomassie staining
Conditions: both partners purified

binding result: binds
B1: Bet2 (recombinant, subunit of yeast GGT3) (natural protein, budding yeast (S. cerevisiae), UniProt P20133 1-325, looked up)
chain: MSGSLTLLKEKHIRYIESLDTKKHNFEYWLTEHLRLNGIYWGLTALCVLDSPETFVKEEVISFVLSCWDDKYGAFAPFPRHDAHLLTTLSAVQILATYDALDVLGKDRKVRLISFIRGNQLEDGSFQGDRFGEVDTRFVYTALSALSILGELTSEVVDPAVDFVLKCYNFDGGFGLCPNAESHAAQAFTCLGALAIANKLDMLSDDQLEEIGWWLCERQLPEGGLNGRPSKLPDVCYSWWVLSSLAIIGRLDWINYEKLTEFILKCQDEKKGGISDRPENEVDVFHTVFGVAGLSLMGYDNLVPIDPIYCMPKSVTSKFKKYPYK
notes: Bet2, budding yeast; also called GST-BET2; recombinant yeast GGT3 β subunit; not shown: GST, N-terminal, cleaved
